Among the data in patent US20250282890A1 are Kd and EC50 (read off the curve) values, retold here.

The target in test [1] is recombinant human PSMA (prostate-specific membrane antigen), biotin-tagged (human) (UniProt Q04609). In words: native ELISA, streptavidin-captured biotin-tagged PSMA, Fab titrated. On the technique in general: In an ELISA, binding on a coated surface is turned into a signal by an enzyme label.
The target is the same in test [2]. Nature of the test: ELISA on plates coated with recombinant PSMA (biotin-tagged, captured on streptavidin), two-fold dilution series, goat anti-human-HRP and TMB.
For test [3], the target named is human PSMA displayed on the surface of LNCaP cells (human) (UniProt Q04609). In words: flow cytometry on LNCaP cells, Fab titrated. (A flow cytometer gives signals particle by particle.)
human PSMA displayed on the surface of LNCaP cells (human), sequence (Q04609 whole entry): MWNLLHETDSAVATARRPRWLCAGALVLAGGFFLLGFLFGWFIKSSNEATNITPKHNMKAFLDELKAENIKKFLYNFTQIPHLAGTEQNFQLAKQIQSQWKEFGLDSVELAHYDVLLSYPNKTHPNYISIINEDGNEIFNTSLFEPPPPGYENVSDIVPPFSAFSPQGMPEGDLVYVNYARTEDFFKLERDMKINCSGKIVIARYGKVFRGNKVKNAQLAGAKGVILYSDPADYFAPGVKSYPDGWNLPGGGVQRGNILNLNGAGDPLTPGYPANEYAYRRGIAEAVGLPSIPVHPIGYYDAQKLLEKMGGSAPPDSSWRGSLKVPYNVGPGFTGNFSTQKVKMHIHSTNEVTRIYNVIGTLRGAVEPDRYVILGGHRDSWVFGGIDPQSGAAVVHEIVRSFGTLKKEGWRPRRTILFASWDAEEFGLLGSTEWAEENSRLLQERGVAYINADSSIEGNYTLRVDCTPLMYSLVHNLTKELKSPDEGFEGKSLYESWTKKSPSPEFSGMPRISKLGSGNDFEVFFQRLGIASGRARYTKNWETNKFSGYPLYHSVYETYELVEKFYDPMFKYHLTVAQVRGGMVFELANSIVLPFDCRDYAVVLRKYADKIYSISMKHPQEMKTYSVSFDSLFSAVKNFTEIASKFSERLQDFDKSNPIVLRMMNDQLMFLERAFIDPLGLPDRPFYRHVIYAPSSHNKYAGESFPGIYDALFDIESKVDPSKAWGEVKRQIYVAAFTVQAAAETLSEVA
For test [4] the target is unchanged. In words: flow cytometry titration on cells (three-fold dilution series, anti-Strep antibody and goat anti-mouse Alexa Fluor 647); the sheet does not name the cell line, the text gives the curves as binding to cell-surface PSMA (LNCaP).
Test [5] concerns the target recombinant human PSMA (prostate-specific membrane antigen), biotin-tagged (human) (UniProt Q04609). Nature of the test: native ELISA, streptavidin-captured biotin-tagged PSMA, IgG1 titrated.
Test [6] addresses human PSMA displayed on the surface of LNCaP cells (human) (UniProt Q04609). Nature of the test: flow cytometry on LNCaP cells, IgG1 titrated.
Test [7] has as its target recombinant human PSMA (prostate-specific membrane antigen), biotin-tagged (human) (UniProt Q04609). In words: ELISA on plates coated with recombinant PSMA, two-fold dilution series, goat anti-human-HRP and TMB.

recombinant human PSMA (prostate-specific membrane antigen), biotin-tagged (human), sequence (Q04609 44-750 limits assumed): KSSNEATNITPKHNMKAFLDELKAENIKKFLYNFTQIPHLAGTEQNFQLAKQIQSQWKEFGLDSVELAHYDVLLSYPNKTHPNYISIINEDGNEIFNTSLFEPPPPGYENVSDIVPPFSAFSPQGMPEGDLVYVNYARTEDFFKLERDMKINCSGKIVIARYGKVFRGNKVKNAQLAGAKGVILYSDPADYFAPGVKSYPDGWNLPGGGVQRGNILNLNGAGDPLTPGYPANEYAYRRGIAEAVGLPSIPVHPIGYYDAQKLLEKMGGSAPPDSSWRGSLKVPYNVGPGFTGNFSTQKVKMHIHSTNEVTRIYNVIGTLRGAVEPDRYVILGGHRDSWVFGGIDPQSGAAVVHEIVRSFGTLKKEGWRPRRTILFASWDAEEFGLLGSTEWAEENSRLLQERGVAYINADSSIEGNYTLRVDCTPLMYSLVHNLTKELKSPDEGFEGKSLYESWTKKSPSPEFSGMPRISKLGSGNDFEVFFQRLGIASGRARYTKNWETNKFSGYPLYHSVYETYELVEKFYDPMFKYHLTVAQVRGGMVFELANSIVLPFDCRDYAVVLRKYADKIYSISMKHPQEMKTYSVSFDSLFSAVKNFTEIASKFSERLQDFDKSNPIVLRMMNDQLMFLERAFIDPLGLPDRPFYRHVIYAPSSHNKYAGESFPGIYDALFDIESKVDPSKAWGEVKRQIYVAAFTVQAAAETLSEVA

As for Chimeric Fab, the Kd in test [1] came to 1.8 nM; in test [3], 2.8 nM. Further, the results for the EC50 (read off the curve) in test [2] and in test [4] were 1 nM and 3 nM, respectively.

Turning to Chimeric 5D3 IgG1 (antibody), the values for the Kd in test [5] and in test [6] were 0.28 nM and 0.35 nM, respectively. Besides, the EC50 (read off the curve) in test [7] was 0.3 nM.

One may read the Kd as a measure of binding affinity in units of concentration. What is called EC50 (read off the curve) is the concentration at which the effect is half-maximal.
